Patent US20030166036

Assays:
[1] = target: proPSA (precursor, zymogen form of PSA), recombinant, P07288
[2] = target: prostate specific antigen (PSA), mature form
Chain of prostate specific antigen (PSA), mature form (chain, as listed by the source): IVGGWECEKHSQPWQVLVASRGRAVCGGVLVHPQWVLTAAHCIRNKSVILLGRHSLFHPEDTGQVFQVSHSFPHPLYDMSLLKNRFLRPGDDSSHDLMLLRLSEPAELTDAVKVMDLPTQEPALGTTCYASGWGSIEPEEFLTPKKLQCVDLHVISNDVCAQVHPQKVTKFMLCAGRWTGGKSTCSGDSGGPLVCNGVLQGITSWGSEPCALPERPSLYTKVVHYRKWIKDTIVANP

Chain of proPSA (precursor, zymogen form of PSA), recombinant, P07288 (P07288 18-261): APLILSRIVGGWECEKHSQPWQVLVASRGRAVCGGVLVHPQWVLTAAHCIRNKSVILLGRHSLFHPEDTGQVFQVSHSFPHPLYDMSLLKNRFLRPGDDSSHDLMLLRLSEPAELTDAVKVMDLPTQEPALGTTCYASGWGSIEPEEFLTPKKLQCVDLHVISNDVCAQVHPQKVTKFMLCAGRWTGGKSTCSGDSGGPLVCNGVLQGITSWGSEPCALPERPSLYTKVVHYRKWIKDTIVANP

B1: lysyl endopeptidase C (Wako Chemicals USA) (protein)
chain: GVSGSCNIDVVCPEGDGRRDIIRAVGAYSKSGTLACTGSLVNNTANDRKMYFLTAHHCGMGTASTAASIVVYWNYQNSTCRAPNTPASGANGDGSMSQTQSGSTVKATYATSDFTLLELNNAANPAFNLFWAGWDRRDQNYPGAIAIHHPNVAEKRISNSTSPTSFVAWGGGAGTTHLNVQWQPSGGVTEPGSSGSPIYSPEKRVLGQLHGGPSSCSATGTNRSDQYGRVFTSWTGGGAAASRLSDWLDPASTGAQFIDGLDSGGGTP
What does the source list for B1?
initial rate of cleavage of the Lys182 in pPSA [1]: 8% per minute; rate of cleavage at Lys145 in pPSA [1]: about 0.6% per minute; initial rate of cleavage at Lys182 [2]: 12% per minute; percent of PSA cleaved at Lys182 after 30 minutes of incubation [2]: 100% of the PSA had been cleaved at Lys182; rate of cleavage at Lys145 [2]: 0.3% per minute; relative rate of cleavage, Lys182 against Lys145 [2]: Lys182 is cleaved approximately 30 times more rapidly than Lys145 by LysC
